Laboratory results: patent publication US20120094909A1 (Bristol-Myers Squibb, published 2012)

Assays:
human serum albumin [1] = target: T1, human serum albumin (human, UniProt P02768 25-609); assay: kinetic binding analysis in MES buffer, pH 5.5
T1 construct: also called HSA

rhesus serum albumin [2] = target: T2, rhesus serum albumin (rhesus, UniProt Q28522 17-600); assay: kinetic binding analysis in MES buffer, pH 5.5
T2 construct: also called RhSA

human serum albumin [3] = target: T1, human serum albumin; assay: kinetic binding analysis in MES buffer, pH 7.4
rhesus serum albumin [4] = target: T2, rhesus serum albumin; assay: kinetic binding analysis in MES buffer, pH 7.4
human serum albumin [5] = target: T1, human serum albumin; assay: kinetic binding analysis in HBS-P buffer, 25 °C
rhesus serum albumin [6] = target: T2, rhesus serum albumin; assay: kinetic binding analysis in HBS-P buffer, 25 °C
murine serum albumin = target: T3, murine serum albumin (mouse, UniProt P07724 25-608); assay: kinetic binding analysis in HBS-P buffer, 25 °C
T3 construct: also called MuSA; Mouse

human serum albumin [7] = target: T1, human serum albumin; assay: kinetic binding analysis in HBS-P buffer, 37 °C
rhesus serum albumin [8] = target: T2, rhesus serum albumin; assay: kinetic binding analysis in HBS-P buffer, 37 °C

T1 sequence (P02768 25-609 limits assumed): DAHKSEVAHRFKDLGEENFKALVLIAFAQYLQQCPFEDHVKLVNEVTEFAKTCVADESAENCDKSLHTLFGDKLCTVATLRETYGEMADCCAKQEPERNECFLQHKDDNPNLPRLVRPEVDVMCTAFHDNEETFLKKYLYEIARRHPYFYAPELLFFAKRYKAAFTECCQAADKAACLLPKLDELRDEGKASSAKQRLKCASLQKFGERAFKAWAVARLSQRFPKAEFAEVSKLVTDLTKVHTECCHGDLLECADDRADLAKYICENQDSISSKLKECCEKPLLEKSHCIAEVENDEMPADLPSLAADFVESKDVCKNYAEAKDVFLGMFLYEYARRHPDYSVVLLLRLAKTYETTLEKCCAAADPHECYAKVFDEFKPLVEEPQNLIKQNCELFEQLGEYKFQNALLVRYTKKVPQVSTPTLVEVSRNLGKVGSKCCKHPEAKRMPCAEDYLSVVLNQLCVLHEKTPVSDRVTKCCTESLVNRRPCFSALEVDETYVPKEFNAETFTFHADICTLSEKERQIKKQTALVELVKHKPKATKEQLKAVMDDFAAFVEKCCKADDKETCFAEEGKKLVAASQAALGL
T2 sequence (Q28522 17-600 limits assumed): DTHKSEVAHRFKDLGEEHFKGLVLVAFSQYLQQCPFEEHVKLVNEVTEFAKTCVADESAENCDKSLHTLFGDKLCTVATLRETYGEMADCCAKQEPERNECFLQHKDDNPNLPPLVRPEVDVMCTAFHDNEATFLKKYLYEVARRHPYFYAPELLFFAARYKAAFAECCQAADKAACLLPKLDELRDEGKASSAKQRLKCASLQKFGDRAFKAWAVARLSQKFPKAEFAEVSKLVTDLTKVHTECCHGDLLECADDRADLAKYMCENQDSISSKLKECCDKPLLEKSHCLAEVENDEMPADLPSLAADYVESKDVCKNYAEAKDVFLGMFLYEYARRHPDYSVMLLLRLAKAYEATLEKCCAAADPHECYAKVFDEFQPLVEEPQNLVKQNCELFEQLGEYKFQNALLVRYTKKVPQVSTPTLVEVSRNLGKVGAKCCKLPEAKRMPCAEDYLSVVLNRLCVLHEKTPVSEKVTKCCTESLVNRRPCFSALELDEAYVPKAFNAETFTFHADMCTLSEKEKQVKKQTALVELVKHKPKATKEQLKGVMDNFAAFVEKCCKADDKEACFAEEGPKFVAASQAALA

Kd (human serum albumin [1]): 28.6 nM | koff (human serum albumin [1]): 0.00027 s⁻¹ | kon (human serum albumin [1]): 9440 M⁻¹ s⁻¹ | Kd (rhesus serum albumin [2]): 359 nM | koff (rhesus serum albumin [2]): 0.00272 s⁻¹ | kon (rhesus serum albumin [2]): 7570 M⁻¹ s⁻¹ | Kd (human serum albumin [3]): 41.9 nM | koff (human serum albumin [3]): 0.000388 s⁻¹ | kon (human serum albumin [3]): 9260 M⁻¹ s⁻¹ | Kd (rhesus serum albumin [4]): 479 nM | koff (rhesus serum albumin [4]): 0.00295 s⁻¹ | kon (rhesus serum albumin [4]): 6160 M⁻¹ s⁻¹ | Kd (human serum albumin [5]): 55.3 nM | koff (human serum albumin [5]): 0.000443 s⁻¹ | kon (human serum albumin [5]): 8210 M⁻¹ s⁻¹ | Kd (rhesus serum albumin [6]): 580 nM | koff (rhesus serum albumin [6]): 0.00378 s⁻¹ | kon (rhesus serum albumin [6]): 6600 M⁻¹ s⁻¹ | binding result (murine serum albumin): no binding (tested: up to 1 µM) | Kd (human serum albumin [7]): 24.1 nM | koff (human serum albumin [7]): 0.000815 s⁻¹ | kon (human serum albumin [7]): 33800 M⁻¹ s⁻¹ | Kd (rhesus serum albumin [8]): 977 nM | koff (rhesus serum albumin [8]): 0.0185 s⁻¹ | kon (rhesus serum albumin [8]): 18900 M⁻¹ s⁻¹
B1: SABA1.2 (designed binder)
chain: MGVSDVPRDLEVVAATPTSLLISWHSYYEQNSYYRITYGETGGNSPVQEFTVPYSQTTATISGLKPGVDYTITVYAVYGSKYYYPISINYRTEIEDEDEDEDED
notes: It has no His tag; also called "core 1" 10Fn3 comprising an (ED)5 extension
